{
  "source": "patent US20130203078A1",
  "assay_in_all_cases": "cell-based or functional assay",
  "key": {"[1]": {"molecular_target": "Human Interleukin 8 Receptor (hIL8RA), on RBL-2H3 cells with human granzyme A (Sensor A) (human) (UniProt P25024)", "sequence (P25024 other isoform, or with tags, fused parts or gaps, form in doubt)": "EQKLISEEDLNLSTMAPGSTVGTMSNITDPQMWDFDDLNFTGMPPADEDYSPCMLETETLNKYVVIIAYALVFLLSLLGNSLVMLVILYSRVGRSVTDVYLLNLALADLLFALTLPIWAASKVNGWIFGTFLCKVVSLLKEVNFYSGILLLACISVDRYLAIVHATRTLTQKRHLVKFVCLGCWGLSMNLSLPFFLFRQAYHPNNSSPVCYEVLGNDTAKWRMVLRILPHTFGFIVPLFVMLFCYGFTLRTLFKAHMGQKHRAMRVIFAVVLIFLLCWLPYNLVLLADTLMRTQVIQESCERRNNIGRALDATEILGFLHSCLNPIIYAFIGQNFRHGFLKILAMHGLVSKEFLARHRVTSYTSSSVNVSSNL"}, "[2]": {"molecular_target": "mutated human procaspase-3 (mut-huCasp3), amino acids 172 to 179 changed from IETDSGVD to IEPDVLME (human) (UniProt P42574)"}, "[3]": {"molecular_target": "T1, human native unmodified procaspase-3 (huCasp3) (human) (UniProt P42574)", "T1 sequence (looked up)": "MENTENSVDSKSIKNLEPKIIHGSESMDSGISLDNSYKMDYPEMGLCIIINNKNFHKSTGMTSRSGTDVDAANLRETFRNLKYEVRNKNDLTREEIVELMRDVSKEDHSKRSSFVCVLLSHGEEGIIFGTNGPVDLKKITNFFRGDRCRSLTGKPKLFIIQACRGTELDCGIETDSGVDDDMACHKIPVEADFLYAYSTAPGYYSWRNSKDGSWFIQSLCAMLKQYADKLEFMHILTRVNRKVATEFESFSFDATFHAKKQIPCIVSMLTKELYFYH"}, "[4]": {"molecular_target": "Human Bradykinin Receptor B1 (BDKRB1), c-myc tagged with viral glycosilation sequence, on RBL-2H3 cells (human) (UniProt P46663)", "sequence (P46663 other isoform, or with tags, fused parts or gaps)": "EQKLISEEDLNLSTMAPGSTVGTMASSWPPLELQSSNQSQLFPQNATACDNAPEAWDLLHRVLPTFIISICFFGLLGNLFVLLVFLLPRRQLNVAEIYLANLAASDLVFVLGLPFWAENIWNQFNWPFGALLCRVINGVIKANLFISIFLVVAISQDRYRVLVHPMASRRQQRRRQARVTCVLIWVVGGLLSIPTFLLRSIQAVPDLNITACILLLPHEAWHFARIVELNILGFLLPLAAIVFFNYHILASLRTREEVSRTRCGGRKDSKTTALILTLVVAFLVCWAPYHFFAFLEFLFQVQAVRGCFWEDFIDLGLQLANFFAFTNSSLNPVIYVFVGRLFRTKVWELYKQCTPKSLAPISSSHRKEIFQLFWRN"}, "[5]": {"molecular_target": "TNP-BSA conjugate (trinitrophenyl hapten conjugated to bovine serum albumin) (bovine) (UniProt P02769)"}, "[6]": {"molecular_target": "Human Somatostain Receptor 2 (SSTR2), c-myc tagged with viral glycosilation sequence, on RBL-2H3 cells (human) (UniProt P30874)", "sequence (P30874 other isoform, or with tags, fused parts or gaps)": "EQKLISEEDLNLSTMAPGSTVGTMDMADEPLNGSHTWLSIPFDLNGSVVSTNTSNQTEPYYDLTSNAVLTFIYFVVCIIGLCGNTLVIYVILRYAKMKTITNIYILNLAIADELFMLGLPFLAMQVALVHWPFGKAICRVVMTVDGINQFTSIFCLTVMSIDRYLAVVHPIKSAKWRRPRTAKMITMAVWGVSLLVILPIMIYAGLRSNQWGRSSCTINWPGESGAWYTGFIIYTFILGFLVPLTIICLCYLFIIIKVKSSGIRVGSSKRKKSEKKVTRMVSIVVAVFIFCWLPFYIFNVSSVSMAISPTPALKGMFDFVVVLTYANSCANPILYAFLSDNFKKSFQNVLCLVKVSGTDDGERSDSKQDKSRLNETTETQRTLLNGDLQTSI"}},
  "data": [
    {"substance": "Human IL8 (from UniProt P10145 28-99) (ligand)", "values": [
      {"measurement": "Signal to background at 30 min (released granzyme A activity; condition 2: Sensor A alone, IL8 10 uM)", "setting": "[1]", "value": 16},
      {"measurement": "Signal to background at 30 min (released granzyme A activity; condition 5: Sensor A mixed with Sensor B, IL8 10 uM and carbachol 10 uM)", "setting": "[1]", "value": 12.5}
    ]},
    {"substance": "human granzyme B secreted by stably transfected RBL-2H3 cells (from UniProt P10144 21-247) (enzyme)", "values": [
      {"measurement": "Signal to Background (S/B), caspase-3 treated with granzyme B against caspase-3 only", "setting": "[2]", "value": 77},
      {"measurement": "signal to background, supernatant equivalent to 5.000 cells, 384 well plate", "setting": "[2]", "value": "> 20"},
      {"measurement": "Signal to Background (S/B), caspase-3 treated with granzyme B against caspase-3 only", "setting": "[3]", "value": 2.8}
    ]},
    {"substance": "kallinin (from UniProt P01042 380-389) (peptide)", "values": [
      {"measurement": "Absorbance at maximal dilution of ELISA tested (human granzyme B sandwich ELISA of supernatant, dilution 2250, after subtraction of 0.2 blank)", "setting": "[4]", "value": 0.8, "unit": "absorbance"},
      {"measurement": "Sensitivity (minimal amount of cells needed)", "setting": "[4]", "value": "< 150", "unit": "cells"},
      {"measurement": "exocytosis of granzyme B, percent of maximal at 5 minutes", "setting": "[4]", "value": "> 90", "unit": "%"},
      {"measurement": "signal to background (S/B) of released granzyme B activity, medium taken at 5 to 15 minutes", "setting": "[4]", "value": "20 to 22"},
      {"measurement": "signal to background (S/B) of released granzyme B activity, medium taken at 30 minutes", "setting": "[4]", "value": "15 to 17"},
      {"measurement": "signal to background (S/B) of released granzyme B activity, medium taken at 60 minutes", "setting": "[4]", "value": "8 to 10"}
    ]},
    {"substance": "mouse IgE monoclonal antibody against trinitrophenyl hapten from IgELb4 hybridoma (ATCC TIB-141)", "values": [
      {"measurement": "Fluorescence after 30 minutes at 37 C (released granzyme B, FRET substrate), TNP-BSA 1 pg/mL", "setting": "[5]", "value": 35900, "unit": "fluorescence"},
      {"measurement": "Fluorescence after 30 minutes at 37 C (released granzyme B, FRET substrate), TNP-BSA 1 ng/mL", "setting": "[5]", "value": 34600, "unit": "fluorescence"},
      {"measurement": "Fluorescence after 30 minutes at 37 C (released granzyme B, FRET substrate), TNP-BSA 1 ug/mL", "setting": "[5]", "value": 30900, "unit": "fluorescence"},
      {"measurement": "Fluorescence after 30 minutes at 37 C (released granzyme B, FRET substrate), TNP-BSA 1 fg/mL", "setting": "[5]", "value": 29800, "unit": "fluorescence"},
      {"measurement": "limit of detection for TNP-BSA", "setting": "[5]", "value": 0.1, "unit": "ag/mL"}
    ]},
    {"substance": "seglitide (peptide)", "values": [
      {"measurement": "Absorbance at maximal dilution of ELISA tested (human granzyme B sandwich ELISA of supernatant, dilution 2250, after subtraction of 0.2 blank)", "setting": "[6]", "value": 2.4, "unit": "absorbance"},
      {"measurement": "Sensitivity (minimal amount of cells needed)", "setting": "[6]", "value": "< 150", "unit": "cells"}
    ]}
  ]
}
